Experiments:
Assay type in all cases: binding
RNA-polyA+ = experiment: Yeast proteome chip probed with biotin-labeled polyA+ RNA; settings: Cy3-streptavidin
From the text: (§1) Protein-DNA and protein-RNA interactions are important for many fundamental biological functions such as transcription regulation, chromosome segregation and maintenance, and RNA transport and processing (Williamson, 2000, Nat. Struct. Biol. 7(10):834-7). To explore the possibility of using a proteome chip to identify proteins that bind to DNA or RNA molecules, total yeast genomic DNA was labeled using Cy3-CTP and Klenow fragment, and polyA^+ was labeled using a biotinylated psoralen-derivative (31). Each probe was incubated with a different proteome chip (FIG. 3A).
(§2) The protein-nucleic acid interaction was assayed as follows. The nucleic acid robes were labeled as described by Winzeler et al. (1999, Science 285:901). Blocked proteome chips were washed three to five times in PBS buffer, and the extra liquid on the glass surface was removed by tapping the slides vertically on a KIMWIPE™. 200 μl of labeled nuclei acid probe ([…] poly(dC/dG); 100-300 mM NaCl; 50-300 mM HEPES, pH 7.0-8.5; 10 mM MgCl2) was added to the proteome chip and immediately covered by a hydrophobic plastic cover slip (GRACE BIO-LABS™, USA). After trapped air bubbles were removed, the chip was incubated in a humidity chamber in the dark at room temperature (“RT”) for one hour. To remove the cover slip, the chip was immersed into large volume of PBS buffer(>50 ml), so that the slip would float away. The chip was then moved to a second PBS bath (>50 ml) and washed 3×5 min with shaking in the dark at RT. To completely remove the liquid on the chip, the chip was spun to dryness at 1500-2000 rpm for 5-10 min at RT.
RNA-polyA^+ from exponentially growing cells was labeled with biotin and used to probe the proteome microarray. The positive signals were detected using Cy3-streptavidin. […] In addition to proteins that likely directly or indirectly interact with RNA, we found two transcription factors (Bur6p and Tos8p), one transcriptional silencer (Hst3p), six other proteins encoded by known ORFs, and seven proteins from uncharacterized ORFs.

total yeast genomic DNA = experiment: Yeast proteome chip probed with labeled genomic DNA; settings: Cy3-labeled genomic DNA, visual inspection
From the text: as §1, §2

calmodulin = target: T1, calmodulin (Homo sapiens, UniProt P0DP23); experiment: Yeast proteome chip probed with biotinylated calmodulin; settings: biotinylated calmodulin in the presence of calcium
T1 construct: purchased CalBiochem, USA
From the text: To test for protein-protein interactions, the yeast proteome was probed with calmodulin (11). Calmodulin is a highly conserved calcium-binding protein involved in many calcium-regulated cellular processes and has many known physical partners (Hook et al., 2001, Annu. Rev. Pharmacol. Toxicol. 41:471). The calmodulin probe was biotinylated, and bound probe was detected using Cy3-labeled streptavidin. As a control, the yeast proteome was probed with Cy3-labeled streptavidin alone.
Generally, protein-protein interactions can be assayed as follows. Blocked proteome chips are washed three to five times in PBS buffer, and the extra liquid on the glass surface is removed by tapping the slides vertically on a KIMWIPE™. 200 ∞l of biotinylated protein probe is added to the proteome chip and immediately covered by a hydrophobic plastic cover slip (GRACE BIO-LABS™, USA). After trapped air bubbles are removed, the chip is incubated in a humidity chamber at room temperature (RT) for one hour. To remove the cover slip, the chip is immersed into large volume of PBS buffer (>50 ml), and the slip should float away. The chip is then moved to a second PBS bath (>50 ml) and washed 3×5 min with shaking at RT. After removing extra liquid on the surface of the chip, at least 150 μl of Cy3- or Cy5-conjugated streptavidin (PIERCE™, USA; 1:2000 to 1:4000 dilution) is added to the surface and covered by a hydrophobic plastic cover slip (GRACE BIO-LABS™, USA). The chip is incubated for greater than 30 min in the dark at RT. The chip is then washed as described above. To completely remove the liquid on the chip, the chip is spun to dryness at 1500-2000 rpm for 5-10 min at RT.
• 1. S. Fields, Y. Kohara, D. J. Lockhart, Proc. Natl. Acad. Sci. 96, 8825 (1999); A. Goffeau et al., Science 274, 563 (1996). • 2 P. Ross-Macdonald et al., Nature 402, 413 (1999); J. L., DeRisi, V. R. Iyer, P. O. Brown, Science 278, 680 (1997); E. A. Winzeler et al., Science 285, 901 (1999). P. Uetz et al., Nature 403, 623 (2000); T. Ito et al., Proc. Natl. Acad. Sci. USA. 97, 1143 (2000) • 3 H. Zhu, M. Snyder, Curr. Opin. Chem. Biol. 5, 40 (2001). • 4 M. R. Martzen et al., Science 286, 1153 (1999). • 5 H. Zhu et al., Nat. Genet. 26, 283 (2000). • 6 G. MacBeath, S. L. Schreiber, Science 289, 1760 (2000). • 7 A. Caveman, J. Cell Sci. 113, 3543 (2000). • 8 P. Arenkov et al., Anal. Biochem 278, 123 (2000). • 9 D. A. Mitchell, T. K. Marshall, R. J. Deschenes, Yeast 9, 715 (1993). The expression vector pEGH was created by inserting an RGS-HisX6 epitope tag between the GST gene and the polycloning site of pEG(KG). The yeast ORFs were cloned using the strategy described previously (5), except every step was done in a 96-well format. Plasmid DNAs confirmed by DNA sequencing were reintroduced into both yeast (Y258) and E. coli (DH5a). […] 0.1 mM calcium was present in buffers in all subsequent steps. The chip was washed three times with PBS at RT. Cy3-conjugated streptavidin (Jackson IR, USA) (1:5000 dilution) was added to the chip and incubated for 30 min at RT. After extensive washing, the chip was spun dry and scanned using a microarray scanner; the data was subsequently acquired with the GENEPIX™ array densitometry software (Axon, USA). • 12 S. S. Hook, A. R. Means, Annu. Rev. […]

B1: Bur6p: alpha-subunit of the NC2 (Dr1/Drap1) repressor of class II transcription (protein, UniProt P40096 1-142, looked up)
Negative cofactor 2 complex …: MADQVPVTTQLPPIKPEHEVPLDAGGSPVGNMGTNSNNNNELGDVFDRIKTHFPPAKVKKIMQTDEDIGKVSQATPVIAGRSLEFFIALLVKKSGEMARGQGTKRITAEILKKTILNDEKFDFLREGLCVEEGQTQPEEESA
- binding of polyA+ RNA probe (RNA-polyA+): bound both the DNA and RNA probes
- binding of genomic DNA probe (total yeast genomic DNA): identified

B2: Cmp2p: one of the two yeast calcineurins (protein)
chain: MSSDAIRNTEQINAAIKIIENKTERPQSSTTPIDSKASTVAAANSTATETSRDLTQYTLDDGRVVSTNRRIMNKVPAITSHVPTDEELFQPNGIPRHEFLRDHFKREGKLSAAQAARIVTLATELFSKEPNLISVPAPITVCGDIHGQYFDLLKLFEVGGDPATTSYLFLGDYVDRGSFSFECLIYLYSLKLNFNDHFWLLRGNHECKHLTSYFTFKNEMLHKYNLDIYEKCCESFNNLPLAALMNGQYLCVHGGISPELNSLQDINNLNRFREIPSHGLMCDLLWADPIEEYDEVLDKDLTEEDIVNSKTMVPHHGKMAPSRDMFVPNSVRGCSYAFTYRAACHFLQETGLLSIIRAHEAQDAGYRMYKNTKTLGFPSLLTLFSAPNYLDTYNNKAAILKYENNVMNIRQFNMTPHPYWLPDFMDVFTWSLPFVGEKVTEMLVAILNICTEDELENDTPVIEELVGTDKKLPQAGKSEATPQPATSASPKHASILDDEHRRKALRNKILAVAKVSRMYSVLREETNKVQFLKDHNSGVLPRGALSNGVKGLDEALSTFERARKHDLINEKLPPSLDELKNENKKYYEKVWQKVHEHDAKNDSK
modifications: left off: a dimerising Fc or GST
notes: one of the two yeast calcineurins
- calmodulin binding (calmodulin): identified

B3: Smd1p: U1 snRNP component (protein, UniProt Q02260 1-146, looked up)
Small nuclear …: MKLVNFLKKLRNEQVTIELKNGTTVWGTLQSVSPQMNAILTDVKLTLPQPRLNKLNSNGIAMASLYLTGGQQPTASDNIASLQYINIRGNTIRQIILPDSLNLDSLLVDQKQLNSLRRSGQIANDPSKKRRRDFGAPANKRPRRGL
- binding of polyA+ RNA probe (RNA-polyA+): identified

B4: Cmk2p: yeast calcium/calmodulin-dependent serine/threonine protein kinase (protein, UniProt P22517 1-447, looked up)
Calcium/calmodulin-dependent …: MPKESEVINSEFHVDVQDPERLNGHPVAKFINKLSGQPESYVNRTNYIFGRTLGAGSFGVVRQARKLSTNEDVAIKILLKKALQGNNVQLQMLYEELSILQKLSHPNIVSFKDWFESKDKFYIVTQLATGGELFDRILSRGKFTEVDAVEIIVQILGAVEYMHSKNVVHRDLKPENVLYVDKSENSPLVIADFGIAKQLKGEEDLIYKAAGSLGYVAPEVLTQDGHGKPCDIWSIGVITYTLLCGYSPFIAESVEGFMEECTASRYPVTFHMPYWDNISIDVKRFILKALRLNPADRPTATELLDDPWITSKRVETSNILPDVKKGFSLRKKLRDAIEIVKLNNRIKRLRNMYSLGDDGDNDIEENSLNESLLDGVTHSLDDLRLQSQKKGGELTEEQMKLKSALTKDAFVQIVKAATKNKHKVLAGEEEDDSKKTLHDDRESKSED
- calmodulin binding (calmodulin): identified

B5: Tos8p: yeast transcription factor suggested to be involved in RNA splicing and processing (protein, UniProt P53147 1-276, looked up)
Homeobox protein TOS8: MGTSIVNLNQKIELPPIQVLFESLNRENETKPHFEERRLYQPNPSFVPRTNIAVGSPVNPVPVSSPVFFIGPSPQRSIQNHNAIMTQNIRQYPVIYNNNREVISTGERNYIITVGGPPVTSSQPEYEHISTPNFYQEQRLAQPHPVNESMMIGGYTNPQPISISRGKMLSGNISTNSVRGSNNGYSAKEKKHKAHGKRSNLPKATVSILNKWLHEHVNNPYPTVQEKRELLAKTGLTKLQISNWFINARRRKIFSGQNDANNFRRKFSSSTNLAKF
- binding of polyA+ RNA probe (RNA-polyA+): identified

B6: Dst1p: yeast protein with a role in transcription elongation (protein, UniProt P07273 1-309, looked up)
Transcription elongation …: MDSKEVLVHVKNLEKNKSNDAAVLEILHVLDKEFVPTEKLLRETKVGVEVNKFKKSTNVEISKLVKKMISSWKDAINKNKRSRQAQQHHQDHAPGNAEDKTTVGESVNGVQQPASSQSDAMKQDKYVSTKPRNSKNDGVDTAIYHHKLRDQVLKALYDVLAKESEHPPQSILHTAKAIESEMNKVNNCDTNEAAYKARYRIIYSNVISKNNPDLKHKIANGDITPEFLATCDAKDLAPAPLKQKIEEIAKQNLYNAQGATIERSVTDRFTCGKCKEKKVSYYQLQTRSADEPLTTFCTCEACGNRWKFS
- calmodulin binding (calmodulin): identified

B7: Hst3p: transcriptional silencer (protein, UniProt P53687 1-447, looked up)
NAD-dependent histone …: MTSVSPSPPASRSGSMCSDLPSSLQTEKLAHIIGLDADDEVLRRVTKQLSRSRRIACLTGAGISCNAGIPDFRSSDGLYDLVKKDCSQYWSIKSGREMFDISLFRDDFKISIFAKFMERLYSNVQLAKPTKTHKFIAHLKDRNKLLRCYTQNIDGLEESIGLTLSNRKLPLTSFSSHWKNLDVVQLHGDLKTLSCTKCFQTFPWSRYWSRCLRRGELPLCPDCEALINKRLNEGKRTLGSNVGILRPNIVLYGENHPSCEIITQGLNLDIIKGNPDFLIIMGTSLKVDGVKQLVKKLSKKIHDRGGLIILVNKTPIGESSWHGIIDYQIHSDCDNWVTFLESQIPDFFKTQDQIKKLRQLKREASDLRKQMKAQKDSIGTPPTTPLRTAQGIDIQGNNELNTKIKSLNTVKRKILSPENSSEEDEEENLDTRKRAKIRPTFGDNQAS
- binding of polyA+ RNA probe (RNA-polyA+): identified

Source: patent publication US20050182242A1, “Global analysis of protein activities using proteome chips” (priority 2001, published 2005)
